Assay results reported in paper PMC4117754.

Legend:
[1] = system: PTB1 C4 C250S;C251S;E518C;del1-55, P26599-1; experiment: filter binding; conditions: Filter binding: 5 mM Hepes pH 7.4, 100 mM KCl, 3 mM MgCl2, 5% glycerol, 75 ug/ml yeast tRNA, 75 ug/ml BSA, 0.5 mM DTT, room temp; probing: 20 mM HEPES-KOH pH 7.
PTB-GFP = PTB-GFP (UniProt P26599); experiment: single-molecule TIRF; conditions: Filter binding: 5 mM Hepes pH 7.4, 100 mM KCl, 3 mM MgCl2, 5% glycerol, 75 ug/ml yeast tRNA, 75 ug/ml BSA, 0.5 mM DTT, room temp, probing: 20 mM HEPES-KOH pH 7.
[2] = system: PTB1 C1C2 C250S;C251S;Q124C;D284C;del1-55, P26599-1; experiment: filter binding; conditions: Filter binding: 5 mM Hepes pH 7.4, 100 mM KCl, 3 mM MgCl2, 5% glycerol, 75 ug/ml yeast tRNA, 75 ug/ml BSA, 0.5 mM DTT, room temp; probing: 20 mM HEPES-KOH pH 7.
[3] = system: PTB1 C1C2m C250S;C251S;Q124C;D284C;I214S;F216A;K218S;del1-55, P26599-1; experiment: filter binding; conditions: Filter binding: 5 mM Hepes pH 7.4, 100 mM KCl, 3 mM MgCl2, 5% glycerol, 75 ug/ml yeast tRNA, 75 ug/ml BSA, 0.5 mM DTT, room temp; probing: 20 mM HEPES-KOH pH 7.
[4] = system: PTB1 C1mC2 C250S;C251S;Q124C;D284C;del1-55, P26599-1; experiment: filter binding; conditions: Filter binding: 5 mM Hepes pH 7.4, 100 mM KCl, 3 mM MgCl2, 5% glycerol, 75 ug/ml yeast tRNA, 75 ug/ml BSA, 0.5 mM DTT, room temp; probing: 20 mM HEPES-KOH pH 7.
[5] = system: PTB1 C1mC2m C250S;C251S;Q124C;D284C;I214S;F216A;K218S;del1-55, P26599-1; experiment: filter binding; conditions: Filter binding: 5 mM Hepes pH 7.4, 100 mM KCl, 3 mM MgCl2, 5% glycerol, 75 ug/ml yeast tRNA, 75 ug/ml BSA, 0.5 mM DTT, room temp; probing: 20 mM HEPES-KOH pH 7.
[6] = system: PTB1 C3C4 C250S;C251S;E518C;del1-55, P26599-1; experiment: filter binding; conditions: Filter binding: 5 mM Hepes pH 7.4, 100 mM KCl, 3 mM MgCl2, 5% glycerol, 75 ug/ml yeast tRNA, 75 ug/ml BSA, 0.5 mM DTT, room temp; probing: 20 mM HEPES-KOH pH 7.
[7] = system: PTB1 C3C4m C250S;C251S;E518C;del1-55, P26599-1; experiment: filter binding; conditions: Filter binding: 5 mM Hepes pH 7.4, 100 mM KCl, 3 mM MgCl2, 5% glycerol, 75 ug/ml yeast tRNA, 75 ug/ml BSA, 0.5 mM DTT, room temp; probing: 20 mM HEPES-KOH pH 7.
[8] = system: PTB1 C3mC4 C250S;C251S;E518C;del1-55, P26599-1; experiment: filter binding; conditions: Filter binding: 5 mM Hepes pH 7.4, 100 mM KCl, 3 mM MgCl2, 5% glycerol, 75 ug/ml yeast tRNA, 75 ug/ml BSA, 0.5 mM DTT, room temp; probing: 20 mM HEPES-KOH pH 7.
[9] = system: PTB1 C3mC4m C250S;C251S;E518C;del1-55, P26599-1; experiment: filter binding; conditions: Filter binding: 5 mM Hepes pH 7.4, 100 mM KCl, 3 mM MgCl2, 5% glycerol, 75 ug/ml yeast tRNA, 75 ug/ml BSA, 0.5 mM DTT, room temp; probing: 20 mM HEPES-KOH pH 7.
[10] = system: PTB1 C4m C250S;C251S;E518C;del1-55, P26599-1; experiment: filter binding; conditions: Filter binding: 5 mM Hepes pH 7.4, 100 mM KCl, 3 mM MgCl2, 5% glycerol, 75 ug/ml yeast tRNA, 75 ug/ml BSA, 0.5 mM DTT, room temp; probing: 20 mM HEPES-KOH pH 7.
[11] = system: PTB1 C4pack C250S;C251S;E518C;E502K;V505E;I509K;del1-55, P26599-1; experiment: filter binding; conditions: Filter binding: 5 mM Hepes pH 7.4, 100 mM KCl, 3 mM MgCl2, 5% glycerol, 75 ug/ml yeast tRNA, 75 ug/ml BSA, 0.5 mM DTT, room temp; probing: 20 mM HEPES-KOH pH 7.
[12] = system: PTB1 LmC4 C250S;C251S;E518C;K439A;K440A;del1-55, P26599-1; experiment: filter binding; conditions: Filter binding: 5 mM Hepes pH 7.4, 100 mM KCl, 3 mM MgCl2, 5% glycerol, 75 ug/ml yeast tRNA, 75 ug/ml BSA, 0.5 mM DTT, room temp; probing: 20 mM HEPES-KOH pH 7.
PTB1 LmC4 C250S;C251S;E518C;K439A;K440A;del1-55, P26599-1, sequence (P26599 other isoform, or with tags, fused parts or gaps C250S C251S E518C K439A K440A): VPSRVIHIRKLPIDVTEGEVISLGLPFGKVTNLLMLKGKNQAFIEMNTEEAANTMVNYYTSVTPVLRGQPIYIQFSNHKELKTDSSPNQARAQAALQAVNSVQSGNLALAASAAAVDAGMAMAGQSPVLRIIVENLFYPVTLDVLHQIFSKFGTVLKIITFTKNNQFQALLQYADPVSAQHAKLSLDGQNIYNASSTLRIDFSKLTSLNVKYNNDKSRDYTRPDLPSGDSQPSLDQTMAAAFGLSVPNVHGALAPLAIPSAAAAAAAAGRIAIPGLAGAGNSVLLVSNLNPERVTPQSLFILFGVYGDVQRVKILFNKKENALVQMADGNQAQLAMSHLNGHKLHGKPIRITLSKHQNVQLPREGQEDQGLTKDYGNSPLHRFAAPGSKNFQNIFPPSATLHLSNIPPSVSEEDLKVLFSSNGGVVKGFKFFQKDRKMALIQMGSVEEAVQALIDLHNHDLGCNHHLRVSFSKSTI

PTB-GFP, sequence (P26599 whole entry): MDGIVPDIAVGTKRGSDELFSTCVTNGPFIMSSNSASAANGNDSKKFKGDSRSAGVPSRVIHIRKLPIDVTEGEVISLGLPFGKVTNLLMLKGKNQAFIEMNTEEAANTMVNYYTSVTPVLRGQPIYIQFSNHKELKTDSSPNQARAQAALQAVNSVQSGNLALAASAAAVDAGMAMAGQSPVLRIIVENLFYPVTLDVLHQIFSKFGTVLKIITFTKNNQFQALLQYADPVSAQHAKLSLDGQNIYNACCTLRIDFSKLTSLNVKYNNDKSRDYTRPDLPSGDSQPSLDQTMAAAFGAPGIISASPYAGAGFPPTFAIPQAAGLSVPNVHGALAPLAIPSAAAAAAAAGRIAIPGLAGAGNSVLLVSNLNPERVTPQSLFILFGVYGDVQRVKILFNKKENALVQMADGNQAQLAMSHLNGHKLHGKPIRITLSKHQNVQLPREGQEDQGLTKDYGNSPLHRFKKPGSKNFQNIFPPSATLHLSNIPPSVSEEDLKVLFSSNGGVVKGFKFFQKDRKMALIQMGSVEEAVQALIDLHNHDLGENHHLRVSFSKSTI
PTB1 C4 C250S;C251S;E518C;del1-55, P26599-1, sequence (P26599 other isoform, or with tags, fused parts or gaps C250S C251S E518C): as the sequence (P26599 other isoform, or with tags, fused parts or gaps C250S C251S E518C K439A K440A) above, with A384K, A385K counted along it
PTB1 C1C2m C250S;C251S;Q124C;D284C;I214S;F216A;K218S;del1-55, P26599-1, sequence (P26599 other isoform, or with tags, fused parts or gaps C250S C251S Q124C D284C I214S F216A K218S): as the sequence (P26599 other isoform, or with tags, fused parts or gaps C250S C251S E518C K439A K440A) above, with Q69C, I159S, F161A, K163S, D229C, A384K, A385K, C463E counted along it
PTB1 C1mC2m C250S;C251S;Q124C;D284C;I214S;F216A;K218S;del1-55, P26599-1, sequence (P26599 other isoform, or with tags, fused parts or gaps C250S C251S Q124C D284C I214S F216A K218S): as the sequence (P26599 other isoform, or with tags, fused parts or gaps C250S C251S E518C K439A K440A) above, with Q69C, I159S, F161A, K163S, D229C, A384K, A385K, C463E counted along it
PTB1 C3mC4m C250S;C251S;E518C;del1-55, P26599-1, sequence (P26599 other isoform, or with tags, fused parts or gaps C250S C251S E518C): as the sequence (P26599 other isoform, or with tags, fused parts or gaps C250S C251S E518C K439A K440A) above, with A384K, A385K counted along it
PTB1 C3mC4 C250S;C251S;E518C;del1-55, P26599-1, sequence (P26599 other isoform, or with tags, fused parts or gaps C250S C251S E518C): as the sequence (P26599 other isoform, or with tags, fused parts or gaps C250S C251S E518C K439A K440A) above, with A384K, A385K counted along it
PTB1 C3C4 C250S;C251S;E518C;del1-55, P26599-1, sequence (P26599 other isoform, or with tags, fused parts or gaps C250S C251S E518C): as the sequence (P26599 other isoform, or with tags, fused parts or gaps C250S C251S E518C K439A K440A) above, with A384K, A385K counted along it
PTB1 C4m C250S;C251S;E518C;del1-55, P26599-1, sequence (P26599 other isoform, or with tags, fused parts or gaps C250S C251S E518C): as the sequence (P26599 other isoform, or with tags, fused parts or gaps C250S C251S E518C K439A K440A) above, with A384K, A385K counted along it
PTB1 C3C4m C250S;C251S;E518C;del1-55, P26599-1, sequence (P26599 other isoform, or with tags, fused parts or gaps C250S C251S E518C): as the sequence (P26599 other isoform, or with tags, fused parts or gaps C250S C251S E518C K439A K440A) above, with A384K, A385K counted along it
PTB1 C1C2 C250S;C251S;Q124C;D284C;del1-55, P26599-1, sequence (P26599 other isoform, or with tags, fused parts or gaps C250S C251S Q124C D284C): as the sequence (P26599 other isoform, or with tags, fused parts or gaps C250S C251S E518C K439A K440A) above, with Q69C, D229C, A384K, A385K, C463E counted along it
PTB1 C1mC2 C250S;C251S;Q124C;D284C;del1-55, P26599-1, sequence (P26599 other isoform, or with tags, fused parts or gaps C250S C251S Q124C D284C): as the sequence (P26599 other isoform, or with tags, fused parts or gaps C250S C251S E518C K439A K440A) above, with Q69C, D229C, A384K, A385K, C463E counted along it
PTB1 C4pack C250S;C251S;E518C;E502K;V505E;I509K;del1-55, P26599-1, sequence (P26599 other isoform, or with tags, fused parts or gaps C250S C251S E518C E502K V505E I509K): as the sequence (P26599 other isoform, or with tags, fused parts or gaps C250S C251S E518C K439A K440A) above, with A384K, A385K, E447K, V450E, I454K counted along it

Row | Substance | Kd [1] | binding signal (% RNA with bound PTB-GFP) (PTB-GFP) | Kd [2] | Kd [3] | Kd [4] | Kd [5] | Kd [6] | Kd [7] | Kd [8] | Kd [9] | Kd [10] | Kd [11] | Kd [12] | Kd (PTB-GFP; average Kd, 3-4 PTB sites, 2.6% of RNA with bound PTB-GFP, nuclear extract)
1 | AUGUGAACAUGGAAUCAUCAAGGAAUGCACACUCACCAGCAACACCAAGUGCAAAGAGGAAGGUAAUUAUUUUUUUACGGUUAUAUUCUCCUUUCCCCCAACCCCAUGGAAAGAUGUGAAGAAAAACCAAUCACUCUUGAUUACUAGAAAGUCCUUUAUUUAAUCUUAAAGAUUGCUUAUUUUCAUAUAAAAUGUCCAAUGUUCCAACCUACAGGAUCCAGAUCUAACUUGGGGUGGCAAUGCACACUCACCAGGCCAAUUCCACUAAUUGUUUGGGGUAAGUUCUUGCUUUGUUCAAACUGCAGAUUGAAAUAACUUGGGAAGUAGGUGUGAAAGUAUGUUCUCACAUGCAUUCUACAAGGCUGAGACCUGAGUUGAUAAAAUUUCUUUGUUCUUUCAGUGAAGAGAAAGGAAGUACAGAAAACAUGCAGAAAGCACAGAAAGGAA [FAS m0 mutant RNA] | 7.5 nM | 2.9 |  |  |  |  |  |  |  |  |  |  |  | 
2 | AUGUGAACAUGGAAUCAUCAAGGAAUGCACACUCACCAGCAACACCAAGUGCAAAGAGGAAGGUAAUUAUUUUUUUACGGUUAUAUUCUCCUUUCCCCCAACCCCAUGGAAAGAUGUGAAGAAAAACCAAUCACUCUUGAUUACUAGAAAGUCCUUUAUUUAAUCUUAAAGAUUGCUUAUUUUCAUAUAAAAUGUCCAAUGUUCCAACCUACAGGAUCCAGAUCUAACUUGGGGUGGCUUUGUCUUCUUCUUUUGCCAAUUCCACUAAUUGUUUGGGGUAAGUUCUUGCUUUGUUCAAACUGCAGAUUGAAAUAACUUGGGAAGUAGGUGUGAAAGUAUGUUCUCACAUGCAUUCUACAAGGCUGAGACCUGAGUUGAUAAAAUUUCUUUGUUCUUUCAGUGAAGAGAAAGGAAGUACAGAAAACAUGCAGAAAGCACAGAAAGGAA [FAS WT RNA (exon 5-6-7)] | 10.3 nM |  | 10.1 nM | 15.3 nM | 11.6 nM | 12.3 nM | 14.7 nM | 22.9 nM | 16.5 nM | 24.6 nM | 29.9 nM | 6.3 nM | 14.2 nM | 20 nM
3 | Tpm1 RNA |  | 7.9 |  |  |  |  |  |  |  |  |  |  |  | 
